Experimental data as given in US20110256172A1.

Target: Bacillus anthracis protective antigen (PA83, List Biological Laboratories) (Bacillus anthracis) (UniProt P13423)
Assay: cell-based or functional assay

Sequence of UniProt P13423 (P13423 30-764): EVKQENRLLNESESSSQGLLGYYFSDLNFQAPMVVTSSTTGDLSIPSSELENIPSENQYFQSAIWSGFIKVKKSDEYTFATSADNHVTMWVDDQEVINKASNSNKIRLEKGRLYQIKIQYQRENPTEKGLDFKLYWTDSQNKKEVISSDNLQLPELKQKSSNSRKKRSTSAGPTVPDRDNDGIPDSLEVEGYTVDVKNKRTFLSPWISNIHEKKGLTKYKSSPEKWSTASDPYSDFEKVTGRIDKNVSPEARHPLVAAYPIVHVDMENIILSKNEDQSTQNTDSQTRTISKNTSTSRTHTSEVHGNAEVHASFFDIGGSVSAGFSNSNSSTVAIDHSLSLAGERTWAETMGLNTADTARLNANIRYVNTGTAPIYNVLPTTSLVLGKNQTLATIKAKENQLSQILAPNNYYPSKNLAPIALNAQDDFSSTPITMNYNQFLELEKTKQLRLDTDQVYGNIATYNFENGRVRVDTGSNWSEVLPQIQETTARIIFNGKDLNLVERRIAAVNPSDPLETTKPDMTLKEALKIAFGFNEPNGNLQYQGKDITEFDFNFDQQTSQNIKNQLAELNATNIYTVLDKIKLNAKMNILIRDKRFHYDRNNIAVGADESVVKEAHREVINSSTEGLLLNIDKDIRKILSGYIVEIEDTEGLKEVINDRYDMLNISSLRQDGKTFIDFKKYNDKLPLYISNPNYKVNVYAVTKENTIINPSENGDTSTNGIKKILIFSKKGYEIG

Substance	peak neutralization titer (TNA) (fold over the control PA antiserum)
Sera of the three rabbits immunized with MAP304 (four copies of P30-PA 304-319)	23
Sera of the three rabbits immunized with MAP305 (four copies of P30-PA 305-319)	19
